# Target: IL-4Ra of CTLL-2 cells (UniProt P16382)
# Assay: cell-based or functional assay
Substance,"ED50 [ng · mL^-1], residual activity, CTLL-2 proliferation","Inactivation factor (ED50 of the product divided by ED50 of the muIL-4 control), CTLL-2 proliferation"
muIL-4 immunogenic product (CRM197) (from UniProt P07750 21-140; P00587 26-560),0.62 µg/mL,370
muIL-4 immunogenic product (KLH),0.0215 µg/mL,21
